Measurements reported in the nanobody polyreactivity screen of Harvey et al. (2022).

Assay: yeast display, Sf9 membrane polyspecificity reagent, FACS + sequencing; frameworks hold sequencing errors
Outline: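 Nanobodies from a synthetic yeast display library (Saccharomyces cerevisiae BJ5465), induced 36–48 hours with galactose, were stained 1 hour at 4 °C with 10% biotinylated, detergent-solubilized Sf9 membrane reagent, enriched on streptavidin microbeads, then FACS-sorted. Anti-HA (expression) and streptavidin (reagent binding) fluorescence set low and high (top ~1%) gates. Polyreactivity labels come from the gate of origin. Genes were colony-PCR amplified, MiSeq 2 × 250 sequenced and filtered by CDR length.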
In the case of “QVQLVESGGGLVQAGGSLRLSCAASGLIFGINAMGWYRQAPGKERELVASISRSTTRTYYADSVKGRFTISRDNAKNTVYLQMNSLKPEDTAVYYCAARQSPNRWMGYWGQGTQVTVSS”, the “polyreactivity (PSR sort gate)” value is reported as “high polyreactivity”.
With “QVQLVESGGGLVQAGGSLRISCAASGFTFEDNTMGWYRQAPGKERELVAAITWGGVSTYYADSVKGRFTISRDNAKNTVYLQMNSLKPEDTAVYYCARDYDVYTVFLMDYWGQGTQVNVSS” the “polyreactivity (PSR sort gate)” value was “low polyreactivity”.
In the case of “QVQLVESGGGLVQAGGSLRLSCAASGSIFSYYAMGWYRQAPGKERELVAVISSSGGRTYYADSVKGRFTISRDNAKNTVYLQMNSLKPEDTAVYYCARERWWGGSDYWGQGTQVTVSS”, the “polyreactivity (PSR sort gate)” value is reported as “high polyreactivity”.
For “QVQLVESGGGLVQAGGSLRLSCAASGYNFDGYAMGWYRQAPGKERELVAAINSGGGTYYADSVKGRFTISRDNAKNTVYLQMNSLKPEDTAVYYCSKYTYDYWGQGTQVTVSS”, the “polyreactivity (PSR sort gate)” value was “low polyreactivity”.
In the case of “QVQLVESGGGLVQAGGSLRLSCAASGSIFTKYAMGWYRQAPGKERELVAAISKTGGSTYYADSVKGRFTISRDTAKNTVYLQMNSLKPEDTAVYYCNAAGGYSVYKRGRDYWGQGTQVTGSS”, the “polyreactivity (PSR sort gate)” value is reported as “high polyreactivity”.
With “QVQLVESGGGLVQAGGSLRLSCAASGSIFSRYAMGWYRQAPGKERELVADITTRGGRTYYADSVKGRFTISRDNAKNTVYLQMNSLKPEDTAVYYCATLHSYRYRGGGDYWGQGTQVTVSS” the “polyreactivity (PSR sort gate)” value was “high polyreactivity”.
For “QVQLVESGGGLVQAGGSLRLSCAASGITFYRYAMGWYREAPGKERELVAAISRSGGGTHYADTVKGRFTISRDNAMNTVYLQMYCLKPEDTAVFYCAASAYSYDYWGQGNQVTVSS”, the “polyreactivity (PSR sort gate)” value was “high polyreactivity”.
In the case of “QVQLVESGGGLVQAGGRLRISCAASGRTFQVYTIGWYRQAPGKERELVAAITWNGGRSRYADSVKGRFTISRDNAKNTVYLQMNRLKPEDTAVYYCNAGSTELGWTWELDYWGQGTQVTVSS”, the “polyreactivity (PSR sort gate)” value is reported as “high polyreactivity”.
For “QVQLVESGGGLVQAGGSLRLSCAASGRTSSRNAMGWYRQAPGKERELVAAISQSGGSTYYADSVKGRFTISRDNAKNTVYLQMNSLKPEDTAVYYCAKEYKPQSYPTYYNYYYWGQGTQVTVSS”, the “polyreactivity (PSR sort gate)” value was “low polyreactivity”.
For “QVQLVESGGGLVQAGGSLRLSSAASGRTSLAYAMGWYRQAPGKERELVAVITSGGNTNYADSVKGRFTISRDNAKNTVYLQMNSLKPEDTAVYYCNKKKRWQWYSESVLDYLGFYSWGQGTQVTVSS”, the “polyreactivity (PSR sort gate)” value was “low polyreactivity”.
With “QVQLVESGGGLVLAGGRLRLSFAASGFIFYQYAKAWYRQATGKEWEFVAAISRNGGSTYYADSVKGRFTISRDNATNTVYLQMNSLKPEDTAVYYCNRDCGGLWSENGYWGQGPQVTVSS” the “polyreactivity (PSR sort gate)” value was “high polyreactivity”.
In the case of “QVQLVESAGGLVQAGGSLRLSCAASVSTLEYNAMGWYRQAPGNERELVAAITASGGSTYYADSVKGRFTISRDNAKKTVYLQMNSLKPDDTAVYYCATEANQRTLKDTVKDYDYWGQGTQVTVSS”, the “polyreactivity (PSR sort gate)” value is reported as “low polyreactivity”.
In the case of “QVQLVESGGGLVQAGGSLRLSCAASGRTFRTYAMGWYRQAPGKERELVAAISRTGRTNYADSVKGRFTISRDNAKNTVYLQMNSLKPEDTAVYYCAADRVGWSGYRGDYWGQGTQVTVSS”, the “polyreactivity (PSR sort gate)” value is reported as “high polyreactivity”.
In the case of “QVQLVESGGGLVQAGGSLRLSCAASGIIFDWYAMGWYRQAPGKERELVAAISDSGDTTYYADSVKGRFTISRDNAKNTVYLQMNSLKPEDTAVYYCNARVIGIYGYWGQGTQVTVSS”, the “polyreactivity (PSR sort gate)” value is reported as “high polyreactivity”.
In the case of “QVQLVESGGGLVQAGGSLRLSCAASGRIFNQYCMGWYRQAPGKERELVAAIRSGDSTNYADSVKGRFTISRDNAKNTVYLQMNSLKPEDTAVYYCARDRPGDYAGYDYWGQGTQVTVSS”, the “polyreactivity (PSR sort gate)” value is reported as “low polyreactivity”.
In the case of “QVQLVESGGGLVQAGGSLRLSCAASGSIFRWNAMGWYRQAPRKEREMVAAIDYSGGSTYYADSVKGRFTISRDNAKKTVYLQMNSLKPEDTAVYFCADTAYYGGYLRYDYWGQGTQVTVSS”, the “polyreactivity (PSR sort gate)” value is reported as “low polyreactivity”.
For “QVQLVESGGGLVQAGGSLRLSCAASGSTFPGYAMGWYRQAPGKERELVAAISASGGSTYYADSVKGRFTISRDNAKNTVYLQMNSLKPEDTAVYYCAKVLSRGASADDYWGQGTQVTVSS”, the “polyreactivity (PSR sort gate)” value was “low polyreactivity”.
In the case of “QVQLVESGGGLVQAGGSLRLRCAASARTFRDYAMGCYRQATGKERELVAVIDSGGGTDYADSVKGRFTISRDNAKNTVYLQMNSLKPEDTAVYYCAADSSVRYRDTEDYWGQGTQVTVSS”, the “polyreactivity (PSR sort gate)” value is reported as “low polyreactivity”.
In the case of “QVQLLESGGGLVQAGGSLRLSCAASGRTFTRNAMGWNRQAPGKERELVATIRYSTGTTYYADSVKGRFTISRDNAKNTVYLQMNSLKPEDTAVYYCAARVYRYRGYDSWGKGTQVTVSS”, the “polyreactivity (PSR sort gate)” value is reported as “high polyreactivity”.
For “QVQHVESGGGLVQAGGSLRLSCAASGSIIPSNVMGWYRQATGKEREFVAGITFRVGSTYYADSVKGRFTISLDNAKNTVYLQMNSLKPEDTAVYYCAALIRAVDRYTYRYGYWGQGTQVTVSS”, the “polyreactivity (PSR sort gate)” value was “high polyreactivity”.
In the case of “QVQLVESGGGLDQAGGSLRLSCAASGGTFDTYAMGWYRQAPGKERELVAGIDWSGGSTYYADSVKGRFTISRDNAKNTVYLQMNSLKPEDTAVYYCAADYYYPSQMDYWGQGTQVTVSS”, the “polyreactivity (PSR sort gate)” value is reported as “low polyreactivity”.
In the case of “QVQLVESGGGLVQAGGSLRLSCAASVFTFGQYTMGWYRQAPGKERELVAAITGSGGNTYYADSVKGRFTISRDNAKNTVYLQMNSLKPEDTAVYYCAVQWTYDQYYDYDYWGQGTQVTVSS”, the “polyreactivity (PSR sort gate)” value is reported as “low polyreactivity”.
For “QVQLQESGGGLVQARGSLRLSCAASGYISHADEMGWYRQAPGKEHELVASFRNGGSTNYADSVKGRFTISRDNAKNTVYLQMNSLKSEDTAVYYCAAWTGQVDIHSYWCQGTQVTVSS”, the “polyreactivity (PSR sort gate)” value was “low polyreactivity”.
With “QVQLVESGGGLVQAGGSLRVSCAASGFTFALYAMGWYRQAPGKERELVAAISWSGGTTYYADSVKGRFTISRDNEKNTVDLQMNSLNPEDTAVYYCNAYTRSRGYDYWGQGTQVTVSS” the “polyreactivity (PSR sort gate)” value was “high polyreactivity”.
In the case of “QVQLVESGGGLVQAGGSLRLSCAASGSTIEDNTMGWYRQAPGKERELVAAISNSGGSTYYADSVKGRFTISRDYAKNTVYLQMISLKPEDTAVYYCAADFYDPFDYWGQGTQVTVSS”, the “polyreactivity (PSR sort gate)” value is reported as “low polyreactivity”.
For “QVQLVESGGGLVQAGGSLRLSCAASGRIFSWYTMGRYRQAPGKERELVADITYSGGSTYYADSVKGRFTISRDNAKNTVYLQMNSLKPEDTAVYYCNADPRWYHFEYGYWGQGTQVTVSS”, the “polyreactivity (PSR sort gate)” value was “high polyreactivity”.
For “QVQLVESGGGLVQAGGSLRLSCAASGSIFTSYAMGWSRQAPGKERELVAAITSGGSTNYADSVKGRFTISRDNAKNTVYLQMNSLKPEDTAVYYCNAKWYWYLTRDAYRYRYTYDYWGQGTQVTVSS”, the “polyreactivity (PSR sort gate)” value was “low polyreactivity”.
In the case of “QGQLEESGGGLVQAGGSLRLSCAASGSIFGENAMGWYRQAPGKDRELVAAISSAGSTKYADSVKGRFTISRDNAKNSVYFQMNSLKPEDTAVYYCAAGYYRTSYPYSYYYWGQGTQVTVSS”, the “polyreactivity (PSR sort gate)” value is reported as “low polyreactivity”.
For “QVQLVESGGGLVQAGGSLRLSCAASGSNFRYYAMGWYSPAPGKERELVAAISQSGGSTYSADSVKGRFTISRDNAKTTVYLQMNSLKPEDTAVYYCAARRVDTRGHVRYRYYYWGQGTQVTVSS”, the “polyreactivity (PSR sort gate)” value was “high polyreactivity”.
In the case of “QVQLVESGGGLVQAGGSLRLSFAASGSTFTPNVMGWYRQAPGKERELVAAINSSGGSTFYADSVKGRFTISRDNANNTVYLQMNSLKPEDTAVYYCAASWHTPTVYDEYYYWGQGTQVNVSS”, the “polyreactivity (PSR sort gate)” value is reported as “low polyreactivity”.
For “QVQLVESGGGLVQAGGSLRLSCAASGSTLTSNAMGWYRQAPGKERELVAAIRSGGSTNYADSVKGRFTISRDNAKNTVYLQMNSLKPEDTAVYYCNKDFLWQGYGYSRVSYDYWGQGTQVTVSS”, the “polyreactivity (PSR sort gate)” value was “low polyreactivity”.
In the case of “QVQLVESGGGLVQAGGSLRLSCAASGRIFAYYAMGWYRPAPGIERELVATIRGGGSTNYADSVKGRFTISRDNAKNTVYLQMNSLKPEATAVYYCAKPGAKWRGFDYWGLGTQVTVSS”, the “polyreactivity (PSR sort gate)” value is reported as “low polyreactivity”.
For “QVQLVESGGGLVQAGGSLRLSCAASGFIFYDYAMGWYRQAPGKERELVASISWSTGSTYYADSVKGRFTISRDNAKNTVYLQMNSLKPEDTADYYCAADGYPLQLYNYWGQGTQVTVSS”, the “polyreactivity (PSR sort gate)” value was “low polyreactivity”.
For “QVQLVESGGGLVQAGGSLRLSCAASGRIFVTNDMGWYRQAPGKETELVAAINWNGDSTNYADSVKGRFTISRDNAKNTVYLQLNSLKPEDTAVYYCAAGWFTRDTLAGYDYWGKGTQVTVSS”, the “polyreactivity (PSR sort gate)” value was “low polyreactivity”.
For “QVQLVDSGGGLVQAGVSLRLSCPASGSIFRPNAMGWYRQAPGKERELVAAINTSDDSTYYADSVKGRFTISRDNAKNTVYLQMNSLIREDTAVYYCAAEYYAYAYGDDYDYWGQGTQVTVSS”, the “polyreactivity (PSR sort gate)” value was “low polyreactivity”.
With “QVQLVESGGGLVQAGGSLRLSCAASGFIFGQYAMGWYRQAPGKERELVAAISRSGGSTYYADSVKGRFTISRDNAKNTVYLQMNSLKPEDTAVYYCNRRDRGDSYRLDYWGQGTQVTVSS” the “polyreactivity (PSR sort gate)” value was “high polyreactivity”.
With “QVQLVESGGGLVQAGGSLRLSCAASGRTFYDYAMGWYRQAPGKERELVASINSDGSTYYADSVKGRFTISLDNAKNTVYLQMNSLKPEDTAVYYCAADALLYSVYYRMYGYDYWGQGTQVTVSS” the “polyreactivity (PSR sort gate)” value was “low polyreactivity”.
With “QGQLVESGGGLVQAGGSLRLSSAASGRTFPSYAMGWYRQAPGKERELVAAITVSGGNTYYADSVKGRFTISRDNAKNTVYLQMNSLKAEDTAVYYCNTASYVSWYVHYYYWGLGTQVTVSS” the “polyreactivity (PSR sort gate)” value was “low polyreactivity”.
In the case of “QVQLVESGGGLVQAGGSLRLSCAASGRIFTYNPMGWYRQAPGKERELVAAISTRGGTTRYADSVKGRFTISRDNAKNTVYLQMNSLKPEDTAVYSCNAVSRGSRWDGLVRLDYWGQGTQVTVSS”, the “polyreactivity (PSR sort gate)” value is reported as “high polyreactivity”.
In the case of “QVQLVESGGGLVQAGGSLRLSCAASGRNFHNYAMGWYRQATRKERELVAGISSRGGSTYYADSVKGRFTISRVNAKNTVYLQMNSLKPEVTAVYYCAKDKSPYGYATNQYRKYYYWGQGTQVTVSS”, the “polyreactivity (PSR sort gate)” value is reported as “low polyreactivity”.
With “QVQLVESGGGLVQARGSLRLSCAASGRTFYYYAMGWSRQAPGKERELVATISSGGSTSYADSVKGRFTISRDNAKNTVNLQMNSLKPEDTAVYYWNGRGRYLGTYHLGRLYNFWGQGTQVTVSS” the “polyreactivity (PSR sort gate)” value was “high polyreactivity”.
